{
  "source": "the Human Domainome abundance scans (Beltran et al. 2025)",
  "parents": {"B1": {"name": "Friend leukemia integration 1 transcription factor, residues 116 to 197; numbered along this chain, Q01543 (parent)", "chain": "NMTTNERRVIVPADPTLWTQEHVRQWLEWAIKEYSLMEIDTSFFQNMDGKELCKMNKEDFLRATTLYNTEVLLSHLSYLRES"}},
  "note": "± gives the uncertainty stated by the source.",
  "data": [
    {"variants_of": "B1", "assay": "abundance fitness (aPCA) (normalised: wild type 0, dead -1); higher = more abundant; growth selection in yeast, the domain comes from the species named", "conditions": "Homo sapiens", "values": [
      {"variant": "NMTTNERRVIVPADPTLWTQEHVRQWLEWAIKEYSLMEIDTSFFQNIDGKELCKMNKEDFLRATTLYNTEVLLSHLSYLRES", "note": "[M47I]", "abundance fitness": "0.077 ± 0.15"},
      {"variant": "NMTTNERRVIVPADPTLWTQEHVRQWLEWAIKEYSLMEIDTSFFQNHDGKELCKMNKEDFLRATTLYNTEVLLSHLSYLRES", "note": "[M47H]", "abundance fitness": "-0.248 ± 0.23"},
      {"variant": "NMTTNERRVIVPADPTLWTQEHVRQWLEWAIKEYSLMEIDTSFFQNYDGKELCKMNKEDFLRATTLYNTEVLLSHLSYLRES", "note": "[M47Y]", "abundance fitness": "0.092 ± 0.17"},
      {"variant": "NMTTNERRVIVPADPTLWTQEHVRQWLEWAIKEYSLMEIDTSFFQNPDGKELCKMNKEDFLRATTLYNTEVLLSHLSYLRES", "note": "[M47P]", "abundance fitness": "-0.706 ± 0.19"},
      {"variant": "NMTTNERRVIVPADPTLWTQEHVRQWLEWAIKEYSLMEIDTSFFQNLDGKELCKMNKEDFLRATTLYNTEVLLSHLSYLRES", "note": "[M47L]", "abundance fitness": "-0.004 ± 0.063"},
      {"variant": "NMTTNERRVIVPADPTLWTQEHVRQWLEWAIKEYSLMEIDTSFFQNGDGKELCKMNKEDFLRATTLYNTEVLLSHLSYLRES", "note": "[M47G]", "abundance fitness": "-0.848 ± 0.19"},
      {"variant": "NMTTNERRVIVPADPTLWTQEHVRQWLEWAIKEYSLMEIDTSFFQNNDGKELCKMNKEDFLRATTLYNTEVLLSHLSYLRES", "note": "[M47N]", "abundance fitness": "-0.285 ± 0.31"},
      {"variant": "NMTTNERRVIVPADPTLWTQEHVRQWLEWAIKEYSLMEIDTSFFQNWDGKELCKMNKEDFLRATTLYNTEVLLSHLSYLRES", "note": "[M47W]", "abundance fitness": "-0.417 ± 0.1"},
      {"variant": "NMTTNERRVIVPADPTLWTQEHVRQWLEWAIKEYSLMEIDTSFFQNEDGKELCKMNKEDFLRATTLYNTEVLLSHLSYLRES", "note": "[M47E]", "abundance fitness": "-1.08 ± 0.28"},
      {"variant": "NMTTNERRVIVPADPTLWTQEHVRQWLEWAIKEYSLMEIDTSFFQNRDGKELCKMNKEDFLRATTLYNTEVLLSHLSYLRES", "note": "[M47R]", "abundance fitness": "-0.239 ± 0.048"},
      {"variant": "NMTTNERRVIVPADPTLWTQEHVRQWLEWAIKEYSLMEIDTSFFQNFDGKELCKMNKEDFLRATTLYNTEVLLSHLSYLRES", "note": "[M47F]", "abundance fitness": "-0.293 ± 0.19"},
      {"variant": "NMTTNERRVIVPADPTLWTQEHVRQWLEWAIKEYSLMEIDTSFFQNKDGKELCKMNKEDFLRATTLYNTEVLLSHLSYLRES", "note": "[M47K]", "abundance fitness": "-0.161 ± 0.12"},
      {"variant": "NMTTNERRVIVPADPTLWTQEHVRQWLEWAIKEYSLMEIDTSFFQNADGKELCKMNKEDFLRATTLYNTEVLLSHLSYLRES", "note": "[M47A]", "abundance fitness": "-0.162 ± 0.068"},
      {"variant": "NMTTNERRVIVPADPTLWTQEHVRQWLEWAIKEYSLMEIDTSFFQNTDGKELCKMNKEDFLRATTLYNTEVLLSHLSYLRES", "note": "[M47T]", "abundance fitness": "-0.344 ± 0.061"},
      {"variant": "NMTTNERRVIVPADPTLWTQEHVRQWLEWAIKEYSLMEIDTSFFQNVDGKELCKMNKEDFLRATTLYNTEVLLSHLSYLRES", "note": "[M47V]", "abundance fitness": "-0.093 ± 0.072"},
      {"variant": "NMTTNERRVIVPADPTLWTQEHVRQWLEWAIKEYSLMEIDTSFTQNMDGKELCKMNKEDFLRATTLYNTEVLLSHLSYLRES", "note": "[F44T]", "abundance fitness": "-0.453 ± 0.067"},
      {"variant": "NMTTNERRVIVPADPTLWTQEHVRQWLEWAIKEYSLMEIDTSFLQNMDGKELCKMNKEDFLRATTLYNTEVLLSHLSYLRES", "note": "[F44L]", "abundance fitness": "-0.227 ± 0.04"},
      {"variant": "NMTTNERRVIVPADPTLWTQEHVRQWLEWAIKEYSLMEIDTSFRQNMDGKELCKMNKEDFLRATTLYNTEVLLSHLSYLRES", "note": "[F44R]", "abundance fitness": "-1.05 ± 0.1"},
      {"variant": "NMTTNERRVIVPADPTLWTQEHVRQWLEWAIKEYSLMEIDTSFSQNMDGKELCKMNKEDFLRATTLYNTEVLLSHLSYLRES", "note": "[F44S]", "abundance fitness": "-0.499 ± 0.059"},
      {"variant": "NMTTNERRVIVPADPTLWTQEHVRQWLEWAIKEYSLMEIDTSFGQNMDGKELCKMNKEDFLRATTLYNTEVLLSHLSYLRES", "note": "[F44G]", "abundance fitness": "-0.637 ± 0.045"},
      {"variant": "NMTTNERRVIVPADPTLWTQEHVRQWLEWAIKEYSLMEIDTSFPQNMDGKELCKMNKEDFLRATTLYNTEVLLSHLSYLRES", "note": "[F44P]", "abundance fitness": "-0.744 ± 0.11"},
      {"variant": "NMTTNERRVIVPADPTLWTQEHVRQWLEWAIKEYSLMEIDTSFHQNMDGKELCKMNKEDFLRATTLYNTEVLLSHLSYLRES", "note": "[F44H]", "abundance fitness": "-0.884 ± 0.18"},
      {"variant": "NMTTNERRVIVPADPTLWTQEHVRQWLEWAIKEYSLMEIDTSFNQNMDGKELCKMNKEDFLRATTLYNTEVLLSHLSYLRES", "note": "[F44N]", "abundance fitness": "-0.875 ± 0.23"},
      {"variant": "NMTTNERRVIVPADPTLWTQEHVRQWLEWAIKEYSLMEIDTSFVQNMDGKELCKMNKEDFLRATTLYNTEVLLSHLSYLRES", "note": "[F44V]", "abundance fitness": "-0.21 ± 0.039"},
      {"variant": "NMTTNERRVIVPADPTLWTQEHVRQWLEWAIKEYSLMEIDTSFQQNMDGKELCKMNKEDFLRATTLYNTEVLLSHLSYLRES", "note": "[F44Q]", "abundance fitness": "-0.96 ± 0.18"},
      {"variant": "NMTTNERRVIVPADPTLWTQEHVRQWLEWAIKEYSLMEIDTSFIQNMDGKELCKMNKEDFLRATTLYNTEVLLSHLSYLRES", "note": "[F44I]", "abundance fitness": "-0.278 ± 0.083"},
      {"variant": "NMTTNERRVIVPADPTLWTQEHVRQWLEWAIKEYSLMEIDTSFMQNMDGKELCKMNKEDFLRATTLYNTEVLLSHLSYLRES", "note": "[F44M]", "abundance fitness": "-0.331 ± 0.071"},
      {"variant": "NMTTNERRVIVPADPTLWTQEHVRQWLEWAIKEYSLMEIDTSFWQNMDGKELCKMNKEDFLRATTLYNTEVLLSHLSYLRES", "note": "[F44W]", "abundance fitness": "-0.13 ± 0.044"},
      {"variant": "NMTTNERRVIVPADPTLWTQEHVRQWLEWAIKEYSLMEIDTSFFFNMDGKELCKMNKEDFLRATTLYNTEVLLSHLSYLRES", "note": "[Q45F]", "abundance fitness": "-0.102 ± 0.16"},
      {"variant": "NMTTNERRVIVPADPTLWTQEHVRQWLEWAIKEYSLMEIDTSFFHNMDGKELCKMNKEDFLRATTLYNTEVLLSHLSYLRES", "note": "[Q45H]", "abundance fitness": "-0.072 ± 0.15"},
      {"variant": "NMTTNERRVIVPADPTLWTQEHVRQWLEWAIKEYSLMEIDTSFFENMDGKELCKMNKEDFLRATTLYNTEVLLSHLSYLRES", "note": "[Q45E]", "abundance fitness": "0.045 ± 0.081"},
      {"variant": "NMTTNERRVIVPADPTLWTQEHVRQWLEWAIKEYSLMEIDTSFFYNMDGKELCKMNKEDFLRATTLYNTEVLLSHLSYLRES", "note": "[Q45Y]", "abundance fitness": "0 ± 0.15"},
      {"variant": "NMTTNERRVIVPADPTLWTQEHVRQWLEWAIKEYSLMEIDTSFFCNMDGKELCKMNKEDFLRATTLYNTEVLLSHLSYLRES", "note": "[Q45C]", "abundance fitness": "-0.081 ± 0.12"}
    ]}
  ]
}
